From patent US20020146797

System: RR-Src peptide

Substance	KM (mM) for protein substrate RR-Src, ATP saturated [mM]	KM (mM) for protein substrate RR-Src, N^6-(cyclopentyl)ATP saturated [mM]
GST-XD4(V323A, I338A)	3.1	2.1
GST-XD4 (glutathione S-transferase fusion of the XD4 fragment of v-Src, wild-type catalytic domain)	2.6	
